Measurements as given in US20260201038A1 (CELLABMED, published 2026).

Assays:
[1] = biological target: B7-H3 on human cancer cells (human) (UniProt Q5ZPR3); test: cell-based or functional assay
[2] = biological target: T1, recombinant human 2Ig B7-H3 (human, UniProt Q5ZPR3 29-466); test: indirect ELISA, antigen coated at 1 ug/mL, anti-human Fc-HRP, absorbance at 450 nm
T1 construct: Bought recombinant protein (R&D Systems); also called 2lg B7-H3
T1 sequence: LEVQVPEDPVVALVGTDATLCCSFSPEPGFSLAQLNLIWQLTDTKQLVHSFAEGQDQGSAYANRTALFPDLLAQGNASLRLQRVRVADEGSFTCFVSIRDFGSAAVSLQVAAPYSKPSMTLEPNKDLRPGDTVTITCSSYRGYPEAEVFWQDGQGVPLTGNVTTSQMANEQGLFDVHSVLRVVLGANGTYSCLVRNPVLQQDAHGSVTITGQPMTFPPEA
Description: (§1) The binding ability of 2D IgG prepared in Example 2 for recombinant B7-H3 protein was investigated by indirect ELISA. For indirect ELISA, recombinant human 4lg B7-H3, recombinant human 2lg B7-H3 and recombinant mouse B7-H3 were diluted respectively to 1 μg/mL in 50 μL of PBS and adsorbed overnight onto a 96-well immunoplate (Corning, USA) by storing at 4° C. After reaction with a buffer solution containing 3% bovine serum albumin at room temperature for 1 hour, followed by washing 3 times with a buffer solution containing 0.5% Tween 20, each well was treated with 50 μL of the antibodies diluted serially (0.0001, 0.0003, 0.001, 0.003, 0.01, 0.03, 0.1, 0.3, 1, 3 and 10 nM). For antigen-antibody binding, the mixture was reacted at room temperature for 2 hours, and then washed 3 times with a buffer solution containing 0.5% Tween 20. After treating each well with 50 μL of anti-human immunoglobulin Fc-HRP antibodies (Jackson Immunoresearch, USA) diluted to 1:3,000, reaction was conducted at room temperature for 1 hour. […] As a result of measuring absorbance at 450 nm using a spectrophotometer (Biotek, USA), it was confirmed that 2D IgG binds to B7-H3, and the binding ability was in the order of 4lg B7-H3, 2lg B7-H3 and mouse B7-H3 (FIG. 2a).

[3] = biological target: T2, recombinant human 4Ig B7-H3 (human, UniProt Q5ZPR3 29-461, limits assumed); test: as above
T2 construct: Bought recombinant protein (Sino Biological); also called 4lg B7-H3
T2 sequence: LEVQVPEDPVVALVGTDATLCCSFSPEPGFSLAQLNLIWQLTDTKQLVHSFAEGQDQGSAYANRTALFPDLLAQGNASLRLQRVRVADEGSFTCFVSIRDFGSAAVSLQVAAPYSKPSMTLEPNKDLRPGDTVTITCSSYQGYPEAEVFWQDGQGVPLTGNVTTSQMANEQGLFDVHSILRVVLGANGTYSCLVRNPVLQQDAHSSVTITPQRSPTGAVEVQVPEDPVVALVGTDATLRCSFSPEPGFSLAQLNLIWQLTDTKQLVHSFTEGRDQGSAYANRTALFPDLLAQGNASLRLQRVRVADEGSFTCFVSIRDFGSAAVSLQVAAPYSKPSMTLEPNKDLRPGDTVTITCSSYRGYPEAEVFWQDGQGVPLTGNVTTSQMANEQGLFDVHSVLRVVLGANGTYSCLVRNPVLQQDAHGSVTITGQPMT
Description: as §1

[4] = biological target: T3, human 4Ig B7-H3 expressed on Raji cells (human) (UniProt Q5ZPR3); test: flow cytometry on Raji cells expressing 4Ig B7-H3; the vector control Raji cells show < 2%
T3 sequence: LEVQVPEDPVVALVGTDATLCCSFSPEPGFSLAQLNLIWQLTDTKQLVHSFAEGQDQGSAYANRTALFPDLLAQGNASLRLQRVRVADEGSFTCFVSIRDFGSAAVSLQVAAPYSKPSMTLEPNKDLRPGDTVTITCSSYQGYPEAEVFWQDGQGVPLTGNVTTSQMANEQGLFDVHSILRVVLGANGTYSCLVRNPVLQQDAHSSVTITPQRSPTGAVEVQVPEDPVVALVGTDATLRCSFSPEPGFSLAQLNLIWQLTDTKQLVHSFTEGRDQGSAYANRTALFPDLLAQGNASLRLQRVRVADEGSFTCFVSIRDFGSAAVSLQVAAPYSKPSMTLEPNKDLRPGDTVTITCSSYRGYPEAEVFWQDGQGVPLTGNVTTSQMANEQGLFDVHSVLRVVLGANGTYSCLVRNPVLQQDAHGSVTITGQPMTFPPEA

For “enoblituzumab with wild-type Fc (antibody)”, the T cell-mediated A549 cell-killing effect (GFP fluorescence of A549 cells after 48 h co-culture with activated PBMCs; negative control group = 100) [1] was 77.3.

B1: 2D IgG (antibody, V domains shown)
VH: AVTLDESGGGLQTPGGGLSLVCKASGFDFSSYPMVWVRQAPGKGLEYVASINSGGSWTGYGAAVKGRATISRDNGQSTVRLQLNNLRAEDTATYYCARAYGAATIDAWGHGTEVIVSS
VL: ALTQPSSVSANLGGTVKITCSGGSIGYGWYQQKAPGSAPVTVIYYNDRRPSDIPSRFSGSKSGSANTLTITGVQADDEAIYYCGSADSSSTYTGIFGAGTTLTVL
notes: Chicken/human chimeric complete antibody (full-length IgG); also called 2D complete antibody; parent antibody (2D)
In the case of B1, the “EC50 (read off the curve)” value [2] is reported as ~0.2 nM and the “EC50 (read off the curve)” value [3] is reported as ~0.006 nM.

B2: enoblituzumab (antibody, part only; not given: Constant regions, V domains shown, not shown: another chain or arm of the molecule)
VH: EVQLVESGGGLVQPGGSLRLSCAASGFTFSSFGMHWVRQAPGKGLEWVAYISSDSSAIYYADTVKGRFTISRDNAKNSLYLQMNSLRDEDTAVYYCGRGRENIYYGSRLDYWGQGTTVTVSS
VL: DIQLTQSPSFLSASVGDRVTITCKASQNVDTNVAWYQQKPGKAPKALIYSASYRYSGVPSRFSGSGSGTDFTLTISSLQPEDFATYYCQQYNNYPFTFGQGTKLEIK
For B2, the % of cells in the positive gate (P3) [4] was > 70%.
